Assay results from patent US12459974B2, “Bicyclic peptide ligands specific for Nectin-4” (priority 2018, dated 2025).
pKd, pKi: −log10 of the molar value. Read-outs that look alike come from different tables or passages of the source. *1 amine or outer side, *2 acyl side, *3 side chain or, on linkers, in order; H or OH if unused. Where a SMILES comes first, the peptide text is derived from it. Bridges are numbered along the chain shown (N, C = ends). Roman numbers before positions name the chains, in order. [ ]: non-standard residue; d: D form. The star is where a group is joined. TATA = O=C(CC[*:1])N1CN(C(=O)CC[*:2])CN(C(=O)CC[*:3])C1; Dolaproine = CO[C@@H]([C@@H]1CCCN1)[C@@H](C)C(=O)O; Dil = CC[C@H](C)[C@H](NC)[C@@H](CC(=O)O)OC; 1Nal = N[C@@H](Cc1cccc2ccccc12)C(=O)O; X3 = O=C(CCCC(=O)[*:2])NCCC(=O)[*:1]; PABC = O=C(OCc1ccc(N[*:1])cc1)[*:2]; X4 = C[C@@H](N*)[C@@H](O)c1ccccc1; Cya = N[C@@H](CS(=O)(=O)O)C(=O)O; Hyp = O=C(O)[C@@H]1C[C@@H](O)CN1; hArg = N=C(N)NCCCC[C@H](N)C(=O)O; Cit = NC(=O)NCCC[C@H](N)C(=O)O; NMeV = CN[C@H](C(=O)O)C(C)C; βAla = NCCC(=O)O; Sar = CNCC(=O)O

Columns and labels:
human Nectin-4 [1] = target: T1, human Nectin-4 (Homo sapiens, UniProt Q96NY8); assay: Nectin-4 competition binding assay (fluorescence polarisation); settings: competition with fluorescent peptide SEQ ID NO: 217; read-out: Ki
T1 sequence (Q96NY8 32-510): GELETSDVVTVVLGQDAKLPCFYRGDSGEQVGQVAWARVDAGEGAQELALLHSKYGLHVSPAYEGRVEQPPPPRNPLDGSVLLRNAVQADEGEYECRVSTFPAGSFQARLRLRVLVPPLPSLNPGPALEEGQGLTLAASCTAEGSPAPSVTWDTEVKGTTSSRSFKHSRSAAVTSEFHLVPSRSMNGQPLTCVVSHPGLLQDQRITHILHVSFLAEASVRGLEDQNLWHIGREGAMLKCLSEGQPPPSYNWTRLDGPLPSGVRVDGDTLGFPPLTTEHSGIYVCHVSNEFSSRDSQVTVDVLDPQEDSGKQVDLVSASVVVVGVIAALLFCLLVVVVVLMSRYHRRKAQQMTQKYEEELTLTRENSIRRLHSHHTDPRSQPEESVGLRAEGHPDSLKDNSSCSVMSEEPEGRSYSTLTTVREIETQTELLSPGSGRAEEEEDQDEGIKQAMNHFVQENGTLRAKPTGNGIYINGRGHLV
Outline: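 Ki derived by cubic-equation fit of mP data, with tracer peptide concentration, its Kd and Nectin-4 level as fixed inputs. Competition set up by adding 2-fold peptide dilutions (≤5% DMSO), then Nectin-4, then fluorescent peptide; polarisation measured as for direct binding.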

human Nectin-4 [2] = target: T2, human Nectin-4 (Homo sapiens, UniProt Q96NY8); assay: Nectin-4 Biacore SPR binding assay
T2 sequence (Q96NY8 32-349): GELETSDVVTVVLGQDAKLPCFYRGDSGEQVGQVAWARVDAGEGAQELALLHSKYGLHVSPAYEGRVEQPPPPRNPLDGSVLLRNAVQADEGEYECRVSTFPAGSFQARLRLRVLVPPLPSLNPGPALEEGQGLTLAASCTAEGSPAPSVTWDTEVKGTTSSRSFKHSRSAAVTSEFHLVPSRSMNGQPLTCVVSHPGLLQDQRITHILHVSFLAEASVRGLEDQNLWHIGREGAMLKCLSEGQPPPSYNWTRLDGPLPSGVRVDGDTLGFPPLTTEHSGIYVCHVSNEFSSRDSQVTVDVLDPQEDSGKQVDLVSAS
Method: Biacore experiments were performed to determine ka (M^−1 s^−1), kd (s^−1), KD (nM) values of monomeric peptides binding to human Necin-4 protein (obtained from Charles River).
Human Nectin-4 (residues Gly32-Ser349; NCBI RefSeq: NP_112178.2) with a gp67 signal sequence and C-terminal FLAG tag was cloned into pFastbac-1 and baculovirus made using standard Bac-to-Bac™ protocols (Life Technologies). Sf21 cells at 1×10^6 ml^−1 in Excell-420 medium (Sigma) at 27° C. were infected at an MOI of 2 with a P1 virus stock and the supernatant harvested at 72 hours. […] The protein was eluted with 100 μg/ml FLAG peptide. The eluted protein was concentrated to 2 ml and loaded onto an S-200 Superdex column (GE Healthcare) in PBS at 1 ml/min. 2 ml fractions were collected and the fractions containing Nectin-4 protein were concentrated to 16 mg/ml.
The protein was extensively desalted to remove uncoupled biotin using spin columns into PBS.
For analysis of peptide binding, a Biacore 3000 instrument was used utilising a CM5 chip (GE Healthcare). Streptavidin was immobilized on the chip using standard amine-coupling chemistry at 25° C. with HBS-N (10 mM HEPES, 0.15 M NaCl, pH 7.4) as the running buffer. Briefly, the carboxymethyl dextran surface was activated with a 7 minute injection of a 1:1 ratio of 0.4 M 1-ethyl-3-(3-dimethylaminopropyl) carbodiimide hydrochloride (EDC)/0.1 M N-hydroxy succinimide (NHS) at a flow rate of 10 μl/min. For capture of streptavidin, the protein was diluted to 0.2 mg/ml in 10 mM sodium acetate (pH 4.5) and captured by injecting 120 μl of streptavidin onto the activated chip surface. Residual activated groups were blocked with a 7 minute injection of 1 M ethanolamine (pH 8.5) and biotinylated Nectin-4 captured to a level of 1,200-1,800 RU. Buffer was changed to PBS/0.05% Tween 20 and a dilution series of the peptides was prepared in this buffer with a final DMSO concentration of 0.5%. The top peptide concentration was 100 nM with 6 further 2-fold dilutions. The SPR analysis was run at 25° C. at a flow rate of 50 μl/min with 60 seconds association and dissociation between 400 and 1,200 seconds depending upon the individual peptide. Data were corrected for DMSO excluded volume effects. All data were double-referenced for blank injections and reference surface using standard processing procedures and data processing and kinetic fitting were performed using Scrubber software, version 2.0c (BioLogic Software). Data were fitted using simple 1:1 binding model allowing for mass transport effects where appropriate.

NCI-H292 xenograft [3] = assay: Example 1: in vivo efficacy in NCI-H292 xenograft (NSCLC model) in BALB/c nude mice; set-up: species or system Mus Musculus; settings: 5 mg/kg; day 9; average
Method: (§1) The major endpoint was to see if the tumor growth could be delayed or mice could be cured. Tumor volume was measured three times weekly in two dimensions using a caliper, and the volume was expressed in mm^3 using the formula: V=0.5 a×b^2 where a and b are the long and short diameters of the tumor, respectively. The tumor size was then used for calculations of T/C value. The T/C value (in percent) is an indication of antitumor effectiveness; T and C are the mean volumes of the treated and control groups, respectively, on a given day. TGI was calculated for each group using the formula: TGI (%)=[1−(Ti−T0)/(Vi−V0)]×100; Ti is the average tumor volume of a treatment group on a given day, T0 is the average tumor volume of the treatment group on the day of treatment start, Vi is the average tumor volume of the vehicle control group on the same day with Ti, and V0 is the average tumor volume of the vehicle group on the day of treatment start.
(§2) A one-way ANOVA was performed to compare tumor volume among groups, and when a significant F-statistics (a ratio of treatment variance to the error variance) was obtained, comparisons between groups were carried out with Games-Howell test. All data were analyzed using GraphPad Prism 5.0. P<0.05 was considered to be statistically significant.
The NCI-H292 tumor cells will be maintained in medium supplemented with 10% heat inactivated fetal bovine serum at 37° C. in an atmosphere of 5% CO2 in air. The tumor cells will be routinely subcultured twice weekly. The cells growing in an exponential growth phase will be harvested and counted for tumor inoculation.
Each mouse will be inoculated subcutaneously at the right flank with NCI-H292 tumor cells (10×10^6) in 0.2 ml of PBS for tumor development. The animals will be randomized and treatment will be started when the average tumor volume reaches approximately 158-406 mm^3.

MDA-MB-468 xenograft [4] = assay: Example 4: in vivo efficacy in MDA-MB-468 xenograft (breast cancer model) in Balb/c nude mice; set-up: species or system Mus Musculus; settings: 5 mg/kg
HCT116 xenograft = assay: Example 9.2: in vivo efficacy in HCT116 xenograft in Balb/c nude mice; set-up: species or system Mus Musculus; settings: 3 mg/kg biw
NCI-H292 xenograft [5] = assay: Example 9.5: in vivo efficacy in NCI-H292 xenograft in Balb/c nude mice; set-up: species or system Mus Musculus; settings: 5 mg/kg; day 9; average
MDA-MB-468 xenograft [6] = assay: Example 9.4: in vivo efficacy in MDA-MB-468 xenograft in Balb/c nude mice; settings: 5 mg/kg
Method: as §1, §2
• Species: Mus Musculus • Strain: Balb/c nude • Age: 6-8 weeks • Sex: female • Body weight: 18-22 g • Number of animals: 41 mice plus spare 3.1.2.
The tumor cells were maintained in Leibovitz's L-15 medium supplemented with 10% heat inactivated fetal bovine serum at 37° C. in an atmosphere of 5% CO2 in air. The tumor cells were routinely subcultured twice weekly. The cells growing in an exponential growth phase were harvested and counted for tumor inoculation.
41 animals were randomized when the average tumor volume reached 196 mm^3.

NCI-H526 xenograft = assay: Example 9.6: in vivo efficacy in NCI-H526 xenograft in Balb/c nude mice
Method: as §1, §2
• Species: Mus Musculus • Strain: Balb/c nude • Age: 6-8 weeks • Sex: female • Body weight: 18-22 g • Number of animals: 21 mice plus spare 3.1.2.
The NCI-H526 cells were maintained in medium supplemented with 10% heat inactivated fetal bovine serum at 37° C. in an atmosphere of 5% CO2 in air. The tumor cells were routinely subcultured twice weekly. The cells growing in an exponential growth phase were harvested and counted for tumor inoculation.
Each mouse was inoculated subcutaneously at the right flank with NCI-H526 tumor cells (5.0×10^6 in 0.2 ml of PBS for tumor development. 21 animals were randomized when the average tumor volume reached 181 mm^3. The test article administration and the animal numbers in each group were shown in the experimental design table.
Tumor growth inhibition rate for test articles in the NCI-H526 xenograft model was calculated based on tumor volume measurements at day 14 after the start of the treatment.

HT-1376 xenograft = assay: Example 2: in vivo efficacy in HT-1376 xenograft (bladder cancer model) in CB17-SCID mice; settings: 3 mg/kg
Method: as §1
A one-way ANOVA was performed to compare tumor volume among groups, and when a significant F-statistics (a ratio of treatment variance to the error variance) was obtained, comparisons between groups were carried out with Games-Howell test. […] P<0.05 was considered to be statistically significant.
• Species: Mus Musculus • Strain: CB17-SCID • Age: 6-8 weeks • Sex: female • Body weight: 18-22 g • Number of animals: 21-41 mice plus spare • Animal supplier: Shanghai LC Laboratory Animal Co., LTD.
The HT-1376 tumor cells were maintained in vitro as a monolayer culture in EMEM medium supplemented with 10% heat inactivated fetal bovine serum at 37° C. in an atmosphere of 5% CO2 in air. The tumor cells were routinely subcultured twice weekly by trypsin-EDTA treatment.
Each mouse was inoculated subcutaneously at the right flank with HT-1376 tumor cells (5×10^6) in 0.2 ml of PBS with matrigel (1:1) for tumor development. Animals were randomized when the average tumor volume reached 153-164 mm^3.
Tumor growth inhibition rate for Test articles in the HT-1376 xenograft model was calculated based on tumor volume measurements at day 21 after the start of treatment.

MDA-MB-468 cell line = assay: Example 11: HCS assay, Nectin-4 BDC binding study; format: cell-based
Method: HCS assay was used in Nectin-4 BDC binding study. Cells were incubated with test agent and then washed. Detection was by a fluorescent antibody to MMAE.

With `CC[C@H](C)[C@@H]1NC(=O)[C@@H]2CCCN2C(=O)[C@H](Cc2c[nH]c3ccccc23)NC(=O)[C@H](CO)NC(=O)[C@H](Cc2c[nH]c3ccccc23)NC(=O)[C@H](CC(N)=O)NC(=O)[C@H](CCCCN)NC(=O)[C@H](CCSC)NC(=O)[C@@H]2CSCCC(=O)N3CN(CN(C3)C(=O)CCSC[C@H](NC(=O)[C@H](C)N)C(=O)N3CCC[C@H]3C(=O)N[C@@H](Cc3ccccc3)C(=O)NCC(=O)N2)C(=O)CCSC[C@@H](C(=O)N[C@@H](C)C(N)=O)NC(=O)[C@H](Cc2c[nH]c3ccccc23)NC1=O` [BCY428, A-(SEQ ID NO: 1)-A] the pKi (human Nectin-4 [1]) was 7.21 and the pKd (human Nectin-4 [2]) was 6.48.
Compound `CC[C@H](C)[C@@H]1NC(=O)[C@@H]2CCCN2C(=O)[C@H](Cc2c[nH]c3ccccc23)NC(=O)[C@H](CO)NC(=O)[C@H](Cc2c[nH]c3ccccc23)NC(=O)[C@H](CC(N)=O)NC(=O)[C@H](CCCCN)NC(=O)[C@H](CCSC)NC(=O)[C@@H]2CSCCC(=O)N3CN(CN(C3)C(=O)CCSC[C@H](NC(C)=O)C(=O)N3CCC[C@H]3C(=O)N[C@@H](Cc3ccccc3)C(=O)NCC(=O)N2)C(=O)CCSC[C@@H](C(N)=O)NC(=O)[C@H](Cc2c[nH]c3ccccc23)NC1=O` [BCY7390, Ac-(SEQ ID NO: 1)] (Ac-CPFGCMKNWSWPIWC-NH2; linker 1-5-15 via TATA; C-terminus assumed) has a pKi (human Nectin-4 [1]) of 7.77 and a pKd (human Nectin-4 [2]) of 7.39.
`CC[C@H](C)[C@@H]1NC(=O)[C@@H]2CCCN2C(=O)[C@H](Cc2c[nH]c3ccccc23)NC(=O)[C@H](CO)NC(=O)[C@H](Cc2c[nH]c3ccccc23)NC(=O)[C@H](CC(N)=O)NC(=O)[C@H](CCCCN)NC(=O)[C@H](CCSC)NC(=O)[C@@H]2CSCCC(=O)N3CN(CN(C3)C(=O)CCSC[C@H](NC(C)=O)C(=O)N3CCC[C@H]3C(=O)N[C@@H](Cc3ccccc3)C(=O)NCC(=O)N2)C(=O)CCSC[C@@H](C(=O)N[C@H](C(=O)N[C@@H](CC(N)=O)C(=O)N[C@@H](CCCCN)C(N)=O)[C@@H](C)O)NC(=O)[C@H](Cc2c[nH]c3ccccc23)NC1=O` [BCY7391, Ac-(SEQ ID NO: 1)-TNK] (Ac-CPFGCMKNWSWPIWCTNK-NH2; linker 1-5-15 via TATA; C-terminus assumed) gave a pKi (human Nectin-4 [1]) of 7.88 and a pKd (human Nectin-4 [2]) of 7.22.
For `CC[C@H](C)[C@@H]([C@@H](CC(=O)N1CCC[C@H]1[C@H](OC)[C@@H](C)C(=O)N[C@H](C)[C@@H](O)c1ccccc1)OC)N(C)C(=O)[C@@H](NC(=O)[C@H](C(C)C)N(C)C(=O)OCc1ccc(NC(=O)[C@H](CCCNC(N)=O)NC(=O)[C@@H](NC(=O)CCCC(=O)NCCC(=O)N(C)CC(=O)N(C)CC(=O)N(C)CC(=O)N(C)CC(=O)N(C)CC(=O)N(C)CC(=O)N(C)CC(=O)N(C)CC(=O)N(C)CC(=O)N(C)CC(=O)N[C@H]2CSCCC(=O)N3CN4CN(C3)C(=O)CCSC[C@H](NC(=O)[C@@H](CCCNC(=N)N)NC(=O)[C@H](Cc3cccc5ccccc35)NC(=O)[C@@H]3CCCN3C2=O)C(=O)N[C@@H](CC(C)C)C(=O)N[C@@H](CCCCNC(=N)N)C(=O)N[C@@H](Cc2c[nH]cn2)C(=O)N[C@@H](Cc2c[nH]c3ccccc23)C(=O)N[C@@H](CO)C(=O)N[C@@H]([C@@H](C)O)C(=O)N2CCC[C@H]2C(=O)N2C[C@H](O)C[C@H]2C(=O)N[C@@H](Cc2c[nH]c3ccccc23)C(=O)N[C@H](C(N)=O)CSCCC4=O)C(C)C)cc1)C(C)C` [BCY8253, MMAE-PABC-Cit-Val-Glutaryl-BCY8231] (I: [Sar][Sar][Sar][Sar][Sar][Sar][Sar][Sar][Sar][Sar]CP[1Nal][dR]CL[hArg]HWSTP[Hyp]WC-NH2 / II: V[Cit][PABC][NMeV]V[Dil][Dolaproine]-X4; linker I:11-I:15-I:25 via TATA; linker I:N-II:N via X3), the bodyweight loss (NCI-H292 xenograft [3]) was > 15%, the “animal body weight (in words)” value (MDA-MB-468 xenograft [4]) was “severe animal body weight loss” and the death (MDA-MB-468 xenograft [4]) was “found dead on day 20”. For the same compound, the bodyweight loss (HCT116 xenograft) was 15%, the bodyweight loss (NCI-H292 xenograft [5]) was > 15% and the “animal body weight (in words)” value (MDA-MB-468 xenograft [6]) was “severe animal body weight loss”. For the same compound, the death (MDA-MB-468 xenograft [6]) was “found dead on day 20”.
For `CC[C@H](C)[C@@H]([C@@H](CC(=O)N1CCC[C@H]1[C@H](OC)[C@@H](C)C(=O)N[C@H](C)[C@@H](O)c1ccccc1)OC)N(C)C(=O)[C@@H](NC(=O)[C@H](C(C)C)N(C)C(=O)OCc1ccc(NC(=O)[C@H](CCCNC(N)=O)NC(=O)[C@@H](NC(=O)CCCC(=O)NCCC(=O)N(C)CC(=O)N(C)CC(=O)N(C)CC(=O)N(C)CC(=O)N(C)CC(=O)N(C)CC(=O)N(C)CC(=O)N(C)CC(=O)N(C)CC(=O)N(C)CC(=O)N[C@H]2CSCCC(=O)N3CN4CN(C3)C(=O)CCSC[C@H](NC(=O)[C@@H](CCCNC(=N)N)NC(=O)[C@H](Cc3cccc5ccccc35)NC(=O)[C@@H]3CCCN3C2=O)C(=O)N[C@@H](CCSC)C(=O)N[C@@H](CCCCNC(=N)N)C(=O)N[C@@H](CC(=O)O)C(=O)N[C@@H](Cc2c[nH]c3ccccc23)C(=O)N[C@@H](CO)C(=O)N[C@@H]([C@@H](C)O)C(=O)N2CCC[C@H]2C(=O)N2C[C@H](O)C[C@H]2C(=O)N[C@@H](Cc2c[nH]c3ccccc23)C(=O)N[C@H](C(N)=O)CSCCC4=O)C(C)C)cc1)C(C)C` [BCY8255, MMAE-PABC-Cit-Val-Glutaryl-BCY8235] (I: [Sar][Sar][Sar][Sar][Sar][Sar][Sar][Sar][Sar][Sar]CP[1Nal][dR]CM[hArg]DWSTP[Hyp]WC-NH2 / II: V[Cit][PABC][NMeV]V[Dil][Dolaproine]-X4; linker I:11-I:15-I:25 via TATA; linker I:N-II:N via X3), the “animal body weight (in words)” value (MDA-MB-468 xenograft [4]) was “severe animal body weight loss”, the bodyweight loss (HCT116 xenograft) was 15% and the animal bodyweight loss (NCI-H526 xenograft; 3 mg/kg biw) was “over 15%”. For the same compound, the animal bodyweight loss (NCI-H526 xenograft; 5 mg/kg qw) was “over 15%”, the “animal body weight (in words)” value (MDA-MB-468 xenograft [6]) was “severe animal body weight loss” and the death (HT-1376 xenograft) was “found dead on day 16”.
Compound `CSCC[C@@H]1NC(=O)[C@@H]2CSCCC(=O)N3CN(CN(C3)C(=O)CCSC[C@H](NC(=O)CN(C)C(=O)CN(C)C(=O)CN(C)C(=O)CN(C)C(=O)CN(C)C(=O)CN(C)C(=O)CN(C)C(=O)CN(C)C(=O)CN(C)C(=O)CN(C)C(=O)CCNC(C)=O)C(=O)N3CCC[C@H]3C(=O)N[C@@H](Cc3cccc4ccccc34)C(=O)N[C@H](CC(=O)O)C(=O)N2)C(=O)CCSC[C@@H](C(N)=O)NC(=O)[C@H](Cc2c[nH]c3ccccc23)NC(=O)[C@@H]2C[C@@H](O)CN2C(=O)[C@@H]2CCCN2C(=O)[C@H]([C@@H](C)O)NC(=O)[C@H](CO)NC(=O)[C@H](Cc2c[nH]c3ccccc23)NC(=O)[C@H](CC(=O)O)NC(=O)[C@H](CS(=O)(=O)O)NC1=O` [BCY8277, Ac-[B-Ala][Sar10]-(SEQ ID NO: 178)] (Ac-[βAla][Sar][Sar][Sar][Sar][Sar][Sar][Sar][Sar][Sar][Sar]CP[1Nal][dD]CM[Cya]DWSTP[Hyp]WC-NH2; linker 12-16-26 via TATA; C-terminus assumed) has a pKd (human Nectin-4 [2]) of 8.22.
For `CC[C@H](C)[C@@H]([C@@H](CC(=O)N1CCC[C@H]1[C@H](OC)[C@@H](C)C(=O)N[C@H](C)[C@@H](O)c1ccccc1)OC)N(C)C(=O)[C@@H](NC(=O)[C@@H](NC)C(C)C)C(C)C` [MMAE, Monomethyl auristatin E, reference compound] (H-[NMeV]V[Dil][Dolaproine]-X4), the “binding affinity on MDA-MB-468 cell line (in words)” value (MDA-MB-468 cell line) was “almost no detectable binding affinity”, the Max fluorescent intensity (MDA-MB-468 cell line; MDA-MB-468 cell line, fluorescent antibody to MMAE) was 2.95 and the pKd (MDA-MB-468 cell line; MDA-MB-468 cell line, historical data, read-out: Historical Kd) was < 5.00. The pKd (MDA-MB-468 cell line; MDA-MB-468 cell line, read-out: Kd) was < 5.00 and the “retention on the cells (in words)” value (MDA-MB-468 cell line; detection by a fluorescent antibody to MMAE) was “minimal retention”.
